Assay [1] deals with T1, cynomolgus monkey FcγRIIIaS extracellular domain with C-terminal His-tag (cynomolgus monkey, UniProt Q8SPW2 21-206 at identity 1.00)).
T1 construct: also called cyno FcgRIIIaS; cynoFcγRIIIaS
T1 chain: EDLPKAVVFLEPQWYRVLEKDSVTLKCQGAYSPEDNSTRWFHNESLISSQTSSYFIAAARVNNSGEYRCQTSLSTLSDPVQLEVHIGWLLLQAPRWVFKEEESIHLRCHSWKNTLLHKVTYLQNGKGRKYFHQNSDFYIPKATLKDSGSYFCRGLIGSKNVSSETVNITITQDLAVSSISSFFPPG
As to the kind of experiment: SPR, antibody captured, FcγR analyte. How it is done:
(§1) The kinetic analysis of interactions between these antibodies and FcγR was carried out using BIACORE® T200 or BIACORE® 4000 (GE Healthcare). HBS-EP+ (GE Healthcare) was used as the running buffer, and the measurement temperature was set to 25° C. […] After the measurement, the antibody captured on the chip was washed off by allowing reaction with 10 mM glycine-HCl, pH1.5 and 25 mM NaOH so that the chip was regenerated and used repeatedly. The sensorgrams obtained as measurement results were analyzed by the 1:1 Langmuir binding model using the BIACORE® Evaluation Software to calculate the binding rate constant ka (L/mol/s) and dissociation rate constant kd (1/s), and the dissociation constant KD (mol/L) was calculated from these values. […] Regarding such interactions, KD values were calculated using the following 1:1 binding model described in BIACORE® T100 Software Handbook BR1006-48 Edition AE.

The target in assay [2] is T1, cynomolgus monkey FcγRIIIaS …. In words: SPR, KD(SG1)/KD(variant). How it is done:
as §1

Assay [3] deals with T2, cynomolgus monkey FcγRIIa1 extracellular domain, His-tagged (cynomolgus monkey).
T2 construct: also called cyno FcγRIIa1; cynoFcgRIIa1; not shown: C-terminal His-tag
T2 chain: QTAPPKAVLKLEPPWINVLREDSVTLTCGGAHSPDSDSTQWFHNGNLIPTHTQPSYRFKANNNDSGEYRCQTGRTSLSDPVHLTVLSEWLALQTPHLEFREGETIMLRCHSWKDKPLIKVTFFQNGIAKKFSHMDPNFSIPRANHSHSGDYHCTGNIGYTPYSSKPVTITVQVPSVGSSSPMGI
As to the kind of experiment: SPR Biacore, antibody captured, FcgR analyte.

Assay [4] has as its target T3, cynomolgus monkey FcγRIIb extracellular domain, His-tagged (cynomolgus monkey).
T3 construct: also called cyno FcγRIIb; cynoFcγRIIb; not shown: C-terminal His-tag
T3 chain: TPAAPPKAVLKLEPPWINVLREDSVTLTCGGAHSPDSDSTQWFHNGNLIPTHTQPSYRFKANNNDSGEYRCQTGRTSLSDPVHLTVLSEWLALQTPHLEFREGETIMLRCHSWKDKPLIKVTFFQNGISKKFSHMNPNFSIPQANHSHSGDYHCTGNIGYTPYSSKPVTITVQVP
As to the kind of experiment: SPR Biacore, KD(SG1)/KD(variant). How it is done:
as §1

Assay [5] addresses T2, cynomolgus monkey FcγRIIa1 …. In words: SPR Biacore, KD(SG1)/KD(variant). How it is done:
as §1

The target of assay [6] is T4, cynomolgus monkey FcγRIIa2 extracellular domain, His-tagged (cynomolgus monkey).
T4 construct: also called cyno FcγRIIa2; cynoFcgRIIa2; not shown: C-terminal His-tag
T4 chain: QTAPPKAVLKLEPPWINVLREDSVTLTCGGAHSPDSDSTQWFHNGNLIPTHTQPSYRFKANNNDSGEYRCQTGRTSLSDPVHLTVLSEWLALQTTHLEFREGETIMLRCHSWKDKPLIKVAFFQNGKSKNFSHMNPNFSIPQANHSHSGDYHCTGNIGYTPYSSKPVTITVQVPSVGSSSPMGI
In words: SPR Biacore, antibody captured, FcgR analyte.

The target of assay [7] is T5, human FcγRIIaR extracellular domain, His-tagged (human, UniProt P12318 34-217).
T5 construct: also called human FcγRIIa (type R); FcgRIIaR; not shown: C-terminal His-tag
T5 chain: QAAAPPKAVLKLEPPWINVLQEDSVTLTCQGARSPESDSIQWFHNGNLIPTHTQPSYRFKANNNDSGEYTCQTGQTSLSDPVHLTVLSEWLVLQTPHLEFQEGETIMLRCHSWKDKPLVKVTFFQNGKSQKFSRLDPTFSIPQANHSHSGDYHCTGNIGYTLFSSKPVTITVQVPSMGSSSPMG
As to the kind of experiment: SPR Biacore, KD(SG1)/KD(variant). How it is done: as §1

In assay [8] the target is T6, human FcγRIIb extracellular domain, His-tagged (human, UniProt P31994 43-217).
T6 construct: also called FcgRIIb (human); not shown: C-terminal His-tag
T6 sequence: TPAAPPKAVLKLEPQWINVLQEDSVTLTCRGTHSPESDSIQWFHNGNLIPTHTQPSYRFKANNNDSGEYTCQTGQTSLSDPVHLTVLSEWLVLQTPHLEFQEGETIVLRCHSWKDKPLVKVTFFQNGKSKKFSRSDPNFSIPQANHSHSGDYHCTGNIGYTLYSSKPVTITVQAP
As to the kind of experiment: SPR Biacore, KD(SG1)/KD(variant). How it is done:
as §1

Assay [9] concerns the target T7, cynomolgus monkey FcγRIIa3 extracellular domain, His-tagged (cynomolgus monkey).
T7 construct: also called cyno FcγRIIa3; cynoFcgRIIa3; not shown: C-terminal His-tag
T7 chain: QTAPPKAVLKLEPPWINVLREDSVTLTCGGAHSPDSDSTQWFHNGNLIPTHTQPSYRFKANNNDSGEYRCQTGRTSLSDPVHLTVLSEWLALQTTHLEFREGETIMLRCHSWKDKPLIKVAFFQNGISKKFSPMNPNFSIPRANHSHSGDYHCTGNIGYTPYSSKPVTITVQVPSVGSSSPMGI
As to the kind of experiment: SPR Biacore, KD(SG1)/KD(variant). How it is done: as §1

Assay [10] deals with T6, human FcγRIIb extracellular domain, …. In words: SPR Biacore, antibody captured, FcgR analyte.

B1: MS1032LO06-MY344 (antibody, human IgG1, kappa)
heavy: QVTLKESGPVLVKPTETLTLTCTVSGIDLSHDDISWVRQAPGKGLEWVGIISYAGSTYYASWAKGRLTISKDTSKNQVVLTMTNMDPVDTATYYCARGVPAYSHGGDLWGQGTLVTVSSASTKGPSVFPLAPSSKSTSGGTAALGCLVKDYFPEPVTVSWNSGALTSGVHTFPAVLQSSGLYSLSSVVTVPSSSLGTQTYICNVNHKPSNTKVDKKVEPKSCDKTHTCPPCPAPELLNGPSVFLFPPKPKDTLMISRTPEVTCVVVDVSDEDPEVKFNWYVDGVEVHNAKTKPREELYNSTYRVVSVLTVLHRDWLNGKEYKCKVSNKALPKPIEKTISKAKGQPREPQVYTLPPSREEMTKNQVSLTCLVKGFYPSDIAVEWESNGQPENNYKTTPPVLDSDGSFFLYSKLTVKKSRWQQGNVFSCSVMHEALHNHYTQKSLSLSP
light: DIVMTQSPATLSLSPGERATLSCTSSQSVYHANWLSWFQQKPGQPPKLLIYWASTLAYGVPSRFSGSGSGTDFTLTISSLQPEDAATYYCAGGYGGGRYAFGQGTKVEIKRTVAAPSVFIFPPSDEQLKSGTASVVCLLNNFYPREAKVQWKVDNALQSGNSQESVTEQDSKDSTYSLSSTLTLSKADYEKHKVYACEVTHQGLSSPVTKSFNRGEC
notes: also called M103205H795-MY344; copies: 2 + 2
Turning to B1, the affinity in [1], expressed as Kd, was 4.9 µM. Moreover, the “KD fold (SG1 = 1)” value in assay [2] was found to be 0.07 fold.

B2: M103205H795-MY042/M103202L889-SK1 (antibody, human IgG1, kappa, name in EU numbering)
heavy: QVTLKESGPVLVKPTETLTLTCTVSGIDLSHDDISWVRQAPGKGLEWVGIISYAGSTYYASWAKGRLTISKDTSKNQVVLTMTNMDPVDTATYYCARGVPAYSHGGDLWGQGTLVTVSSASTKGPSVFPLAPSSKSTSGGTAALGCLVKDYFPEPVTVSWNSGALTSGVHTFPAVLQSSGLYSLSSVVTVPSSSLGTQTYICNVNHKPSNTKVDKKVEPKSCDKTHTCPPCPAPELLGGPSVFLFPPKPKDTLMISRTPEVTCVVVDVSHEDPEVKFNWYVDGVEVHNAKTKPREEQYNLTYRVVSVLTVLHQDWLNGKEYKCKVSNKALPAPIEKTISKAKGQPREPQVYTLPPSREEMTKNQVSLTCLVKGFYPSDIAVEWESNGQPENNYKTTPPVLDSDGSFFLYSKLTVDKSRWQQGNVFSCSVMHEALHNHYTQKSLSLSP
light: DIVMTQSPATLSLSPGERATLSCTSSQSVYHANWLSWFQQKPGQPPKLLIYWASTLAYGVPSRFSGSGSGTDFTLTISSLQPEDAATYYCAGGYGGGRYAFGQGTKVEIKRTVAAPSVFIFPPSDEQLKSGTASVVCLLNNFYPREAKVQWKVDNALQSGNSQESVTEQDSKDSTYSLSSTLTLSKADYEKHKVYACEVTHQGLSSPVTKSFNRGEC
notes: Substitution introduced into M103205H795-SG1; EU numbering
B2 showed a Kd in [3] of 0.51 µM.

B3: M103205H795-MY013/M103202L889-SK1 (antibody, human IgG1, kappa, name in EU numbering)
heavy: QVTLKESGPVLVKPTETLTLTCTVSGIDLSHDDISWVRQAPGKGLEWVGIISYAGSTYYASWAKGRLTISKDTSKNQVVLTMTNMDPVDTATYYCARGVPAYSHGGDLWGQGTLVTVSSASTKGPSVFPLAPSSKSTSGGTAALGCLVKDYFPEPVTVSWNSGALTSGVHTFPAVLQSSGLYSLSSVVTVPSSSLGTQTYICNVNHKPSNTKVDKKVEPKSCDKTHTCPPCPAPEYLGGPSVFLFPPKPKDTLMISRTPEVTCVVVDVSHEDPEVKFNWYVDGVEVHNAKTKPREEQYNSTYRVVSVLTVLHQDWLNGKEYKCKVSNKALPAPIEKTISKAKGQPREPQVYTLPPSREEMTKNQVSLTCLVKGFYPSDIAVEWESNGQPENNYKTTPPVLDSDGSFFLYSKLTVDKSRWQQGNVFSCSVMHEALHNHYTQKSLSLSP
light: DIVMTQSPATLSLSPGERATLSCTSSQSVYHANWLSWFQQKPGQPPKLLIYWASTLAYGVPSRFSGSGSGTDFTLTISSLQPEDAATYYCAGGYGGGRYAFGQGTKVEIKRTVAAPSVFIFPPSDEQLKSGTASVVCLLNNFYPREAKVQWKVDNALQSGNSQESVTEQDSKDSTYSLSSTLTLSKADYEKHKVYACEVTHQGLSSPVTKSFNRGEC
notes: as for B2
Consider B3, for which the “KD fold (SG1 = 1)” value in [4] was determined as 0.5 fold.

B4: M103205H795-MY070/M103202L889-SK1 (antibody, human IgG1, kappa, name in EU numbering)
heavy: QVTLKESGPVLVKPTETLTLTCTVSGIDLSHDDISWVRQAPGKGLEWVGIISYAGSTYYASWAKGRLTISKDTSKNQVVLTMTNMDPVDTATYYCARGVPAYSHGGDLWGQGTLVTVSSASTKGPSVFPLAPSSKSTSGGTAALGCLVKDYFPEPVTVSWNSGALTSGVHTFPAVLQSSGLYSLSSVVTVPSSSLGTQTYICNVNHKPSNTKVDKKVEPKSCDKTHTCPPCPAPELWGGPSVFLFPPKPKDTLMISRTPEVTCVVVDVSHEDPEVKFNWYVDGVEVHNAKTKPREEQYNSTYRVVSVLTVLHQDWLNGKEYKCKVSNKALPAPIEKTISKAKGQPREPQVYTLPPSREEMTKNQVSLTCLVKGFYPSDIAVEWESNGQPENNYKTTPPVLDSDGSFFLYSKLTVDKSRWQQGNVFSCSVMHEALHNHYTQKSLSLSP
light: DIVMTQSPATLSLSPGERATLSCTSSQSVYHANWLSWFQQKPGQPPKLLIYWASTLAYGVPSRFSGSGSGTDFTLTISSLQPEDAATYYCAGGYGGGRYAFGQGTKVEIKRTVAAPSVFIFPPSDEQLKSGTASVVCLLNNFYPREAKVQWKVDNALQSGNSQESVTEQDSKDSTYSLSSTLTLSKADYEKHKVYACEVTHQGLSSPVTKSFNRGEC
notes: as for B2
Regarding B4, the “KD fold (SG1 = 1)” value in assay [5] turned out to be 1 fold. This molecule also displayed a Kd in [6] of 2.8 µM.

B5: M103205H795-MY061/M103202L889-SK1 (antibody, human IgG1, kappa, name in EU numbering)
heavy: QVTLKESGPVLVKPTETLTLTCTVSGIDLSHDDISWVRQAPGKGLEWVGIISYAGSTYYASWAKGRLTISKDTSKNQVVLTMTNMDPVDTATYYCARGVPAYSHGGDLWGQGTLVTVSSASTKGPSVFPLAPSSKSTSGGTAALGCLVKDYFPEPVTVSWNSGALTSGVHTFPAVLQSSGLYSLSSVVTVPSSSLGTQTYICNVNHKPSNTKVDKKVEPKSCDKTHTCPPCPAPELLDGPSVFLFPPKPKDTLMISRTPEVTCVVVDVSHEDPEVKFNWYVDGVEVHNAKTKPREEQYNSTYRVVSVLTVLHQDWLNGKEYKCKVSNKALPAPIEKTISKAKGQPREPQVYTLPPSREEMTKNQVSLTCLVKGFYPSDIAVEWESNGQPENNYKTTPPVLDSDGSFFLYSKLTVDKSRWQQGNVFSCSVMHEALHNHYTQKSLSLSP
light: DIVMTQSPATLSLSPGERATLSCTSSQSVYHANWLSWFQQKPGQPPKLLIYWASTLAYGVPSRFSGSGSGTDFTLTISSLQPEDAATYYCAGGYGGGRYAFGQGTKVEIKRTVAAPSVFIFPPSDEQLKSGTASVVCLLNNFYPREAKVQWKVDNALQSGNSQESVTEQDSKDSTYSLSSTLTLSKADYEKHKVYACEVTHQGLSSPVTKSFNRGEC
notes: as for B2
Turning to B5, the “KD fold (SG1 = 1)” value in assay [7] turned out to be 0.8 fold; in [4], 0.4 fold. Also, in [6], the Kd was found to be 6.8 µM.

B6: MS1032LO06-PK2 (antibody, human IgG1, kappa)
heavy: QVTLKESGPVLVKPTETLTLTCTVSGIDLSHDDISWVRQAPGKGLEWVGIISYAGSTYYASWAKGRLTISKDTSKNQVVLTMTNMDPVDTATYYCARGVPAYSHGGDLWGQGTLVTVSSASTKGPSVFPLAPSSKSTSGGTAALGCLVKDYFPEPVTVSWNSGALTSGVHTFPAVLQSSGLYSLSSVVTVPSSSLGTQTYICNVNHKPSNTKVDKKVEPKSCDKTHTCPPCPAPELLNGPSVFLFPPKPKDTLMISRTPEVTCVVVDVSEEDPEVKFNWYVDGVEVHNAKTKPREEQYNSTYRVVSVLTVLHQDWLNGKEYKCKVSNKALPKPIEKTISKAKGQPREPQVYTLPPSREEMTKNQVSLTCLVKGFYPSDIAVEWESNGQPENNYKTTPMVLDRDGSFFLYSKLTVKKSRWQQGNVFSCSVMHEALHNHYTQKSLSLSP
light: DIVMTQSPATLSLSPGERATLSCTSSQSVYHANWLSWFQQKPGQPPKLLIYWASTLAYGVPSRFSGSGSGTDFTLTISSLQPEDAATYYCAGGYGGGRYAFGQGTKVEIKRTVAAPSVFIFPPSDEQLKSGTASVVCLLNNFYPREAKVQWKVDNALQSGNSQESVTEQDSKDSTYSLSSTLTLSKADYEKHKVYACEVTHQGLSSPVTKSFNRGEC
notes: also called M103205H795-PK2; copies: 2 + 2
B6 yielded a Kd in [1] of 3.9 µM. In [2], the “KD fold (SG1 = 1)” value was determined as 0.09 fold.

B7: M103205H795-MY071/M103202L889-SK1 (antibody, human IgG1, kappa, name in EU numbering)
heavy: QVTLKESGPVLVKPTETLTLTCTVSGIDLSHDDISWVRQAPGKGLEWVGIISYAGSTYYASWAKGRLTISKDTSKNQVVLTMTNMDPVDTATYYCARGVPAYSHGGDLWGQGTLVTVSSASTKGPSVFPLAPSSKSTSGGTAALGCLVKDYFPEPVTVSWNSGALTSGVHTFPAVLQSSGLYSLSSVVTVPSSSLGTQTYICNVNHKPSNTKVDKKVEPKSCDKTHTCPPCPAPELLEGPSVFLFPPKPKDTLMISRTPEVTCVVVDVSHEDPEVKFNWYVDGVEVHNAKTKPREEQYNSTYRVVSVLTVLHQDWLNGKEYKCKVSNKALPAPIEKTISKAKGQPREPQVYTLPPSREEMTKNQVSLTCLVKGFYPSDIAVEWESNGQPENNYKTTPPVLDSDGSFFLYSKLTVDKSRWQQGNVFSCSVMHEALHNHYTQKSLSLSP
light: DIVMTQSPATLSLSPGERATLSCTSSQSVYHANWLSWFQQKPGQPPKLLIYWASTLAYGVPSRFSGSGSGTDFTLTISSLQPEDAATYYCAGGYGGGRYAFGQGTKVEIKRTVAAPSVFIFPPSDEQLKSGTASVVCLLNNFYPREAKVQWKVDNALQSGNSQESVTEQDSKDSTYSLSSTLTLSKADYEKHKVYACEVTHQGLSSPVTKSFNRGEC
notes: as for B2
On to B7, for which the “KD fold (SG1 = 1)” value was found to be 1.5 fold in assay [8] and 1.8 fold in assay [9]. For the same molecule, the Kd in assay [10] was 3.1 µM.

B8: M103205H795-MY040/M103202L889-SK1 (antibody, human IgG1, kappa, name in EU numbering)
heavy: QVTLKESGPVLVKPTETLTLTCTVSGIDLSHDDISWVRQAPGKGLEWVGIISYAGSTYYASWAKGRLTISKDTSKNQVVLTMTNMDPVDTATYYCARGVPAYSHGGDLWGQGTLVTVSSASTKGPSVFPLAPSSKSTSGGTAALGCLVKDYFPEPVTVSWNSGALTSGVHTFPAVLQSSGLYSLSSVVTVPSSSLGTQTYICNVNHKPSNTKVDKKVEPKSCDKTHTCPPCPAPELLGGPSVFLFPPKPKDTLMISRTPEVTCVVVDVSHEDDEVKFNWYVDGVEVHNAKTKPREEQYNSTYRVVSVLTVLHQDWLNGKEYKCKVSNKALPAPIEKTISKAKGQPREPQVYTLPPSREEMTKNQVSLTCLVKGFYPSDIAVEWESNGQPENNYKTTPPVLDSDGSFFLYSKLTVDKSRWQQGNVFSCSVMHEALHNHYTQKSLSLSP
light: DIVMTQSPATLSLSPGERATLSCTSSQSVYHANWLSWFQQKPGQPPKLLIYWASTLAYGVPSRFSGSGSGTDFTLTISSLQPEDAATYYCAGGYGGGRYAFGQGTKVEIKRTVAAPSVFIFPPSDEQLKSGTASVVCLLNNFYPREAKVQWKVDNALQSGNSQESVTEQDSKDSTYSLSSTLTLSKADYEKHKVYACEVTHQGLSSPVTKSFNRGEC
notes: as for B2
Consider B8, for which the “KD fold (SG1 = 1)” value is 0.9 fold in assay [7] and 3.9 fold in [9]. Further, in [3], binding was put at a Kd of 5.5 µM.

B9: M103205H795-MY196/M103202L889-SK1 (antibody, human IgG1, kappa, name in EU numbering)
heavy: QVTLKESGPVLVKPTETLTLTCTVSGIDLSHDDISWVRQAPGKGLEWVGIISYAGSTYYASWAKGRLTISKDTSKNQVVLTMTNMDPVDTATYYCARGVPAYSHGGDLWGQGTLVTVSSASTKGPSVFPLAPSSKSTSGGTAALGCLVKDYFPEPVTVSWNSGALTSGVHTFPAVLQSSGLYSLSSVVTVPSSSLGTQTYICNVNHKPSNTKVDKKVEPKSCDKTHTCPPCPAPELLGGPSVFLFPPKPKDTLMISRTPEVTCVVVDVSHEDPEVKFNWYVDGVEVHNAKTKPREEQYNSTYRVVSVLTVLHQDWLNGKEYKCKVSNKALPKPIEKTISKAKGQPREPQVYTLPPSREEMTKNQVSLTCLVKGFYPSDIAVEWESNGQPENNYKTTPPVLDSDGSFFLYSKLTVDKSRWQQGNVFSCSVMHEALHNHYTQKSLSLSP
light: DIVMTQSPATLSLSPGERATLSCTSSQSVYHANWLSWFQQKPGQPPKLLIYWASTLAYGVPSRFSGSGSGTDFTLTISSLQPEDAATYYCAGGYGGGRYAFGQGTKVEIKRTVAAPSVFIFPPSDEQLKSGTASVVCLLNNFYPREAKVQWKVDNALQSGNSQESVTEQDSKDSTYSLSSTLTLSKADYEKHKVYACEVTHQGLSSPVTKSFNRGEC
notes: as for B2
For B9, the Kd in assay [10] was found to be 3.2 µM.

The record behind these values is patent US20250076311A1 (Chugai, published 2025).
